The target of series [1] is T1, ZAP-70 (Homo sapiens, UniProt P43403).
T1 construct: made in house; host or cells: Sf9 cells (baculovirus)
T1 sequence (P43403 1-619): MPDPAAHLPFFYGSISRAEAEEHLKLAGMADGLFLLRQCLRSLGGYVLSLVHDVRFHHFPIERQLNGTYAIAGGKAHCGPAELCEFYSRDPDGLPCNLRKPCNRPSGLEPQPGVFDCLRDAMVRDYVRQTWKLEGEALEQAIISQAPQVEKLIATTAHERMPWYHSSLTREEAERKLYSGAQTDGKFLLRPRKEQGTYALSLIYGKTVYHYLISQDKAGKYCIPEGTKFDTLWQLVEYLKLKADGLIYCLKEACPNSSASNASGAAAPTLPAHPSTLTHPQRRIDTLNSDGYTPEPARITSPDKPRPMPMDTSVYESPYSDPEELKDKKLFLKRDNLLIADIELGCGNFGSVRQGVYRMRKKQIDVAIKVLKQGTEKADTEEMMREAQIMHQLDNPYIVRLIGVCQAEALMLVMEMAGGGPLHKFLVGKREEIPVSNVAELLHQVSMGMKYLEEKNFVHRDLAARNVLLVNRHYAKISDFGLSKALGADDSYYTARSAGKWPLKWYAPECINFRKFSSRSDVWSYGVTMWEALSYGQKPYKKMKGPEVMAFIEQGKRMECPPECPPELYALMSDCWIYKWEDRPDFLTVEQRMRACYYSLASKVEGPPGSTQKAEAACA
The experiment in a line: Inhibition of tubulin phosphorylation by ZAP-70. Format: biochemical. As to conditions: tubulin (5 μM) as substrate; FIG. 1D; compared to peptide 4. The protocol: FIG. 1A: A glutathione-S-transferase chimera of ZAP-70 was purified from Sf9 cells and assayed for its ability to phosphorylate tubulin in the presence of 0, 50, or 100 μM of peptide 1 (SEQ ID NO: 5) or peptide 2 (SEQ ID NO: 6). The assay was carried out in kinase buffer (5 mM MnCl2, 5 mM MgCl2, 25 mM Tris [pH 7.4]), 50 μM ATP, and […] [γ-^32P]ATP for 5 min at 30° C. ^32P-phosphorylated tubulin was separated on SDS-PAGE, visualized by autoradiography (inset), and quantitated using a molecular imager (Bio-Rad).
FIG. 1D: The ZAP-70 Tyr-kinase assay was as described above, using tubulin (5 μM) as substrate. […]
(§1) Synthetic peptides, tubulin, or GST-band III (construct kindly provided by A. Weiss, University of California, San Francisco) (Zhao and Weiss, 1996) were phosphorylated by ZAP-70-GST-fused protein in the presence or absence of the indicated amount of inhibitory peptides in the kinase buffer (10 mM MnCl2, 50 mM Tris [pH 7.4], 1 mM DTT), 100 μM ATP, and 5 μCi [γ-^32P]ATP for 5 min (or 10 min for GST-band-III) at 30° C. The amount of radioactivity incorporated into substrate peptide was determined using the phosphocellulose assay. […] Phosphorylated tubulin, GST-band III, and myelin basic protein were separated on SDS-PAGE, visualized by autoradiography, and quantitated using a molecular imager (Bio-Rad, Hercules, Calif.).

In series [2] the target is T1, ZAP-70. Kind of series: Inhibition of ZAP-70 phosphorylation of peptide 1 (phosphocellulose assay, Lineweaver-Burke plot). The series is classed as biochemical. As to conditions: peptide 1 as substrate; FIG. 1B; compared to peptide 4. The protocol:
FIG. 1B: ZAP-70 was also assayed for its ability to phosphorylate peptide 1 (10 μM) in the presence of 0, 10, or 50 μM of peptide 4 (SEQ ID NO: 9) or peptide 5 (SEQ ID NO: 10). Peptide phosphorylation was determined by spotting the reaction mixture on phosphocellulose and washing away the ^32P-ATP with a phosphate buffer. The polylysine tail of peptide 1 facilitates retention on the phosphocellulose (Songyang et al., 1996). The data are presented as the percentage of the activity present in the absence of inhibitory peptides. […]
as §1

Another series deals with T2, Lck-GST-fused protein (Homo sapiens, UniProt P06239).
T2 construct: made in house; host or cells: Sf9 cells
The experiment in a line: Inhibition of myelin basic protein phosphorylation by Lck. Format: biochemical. The conditions noted are these: myelin basic protein (5 μM) as substrate; FIG. 1E; compared to peptide 4. The protocol: FIG. 1E: A glutathione-S-transferase chimera of Lck was purified from Sf9 cells and assayed for the ability to phosphorylate myelin basic protein (5 μM) in the presence or absence of the same three peptides as used in FIG. 1D. The assay was carried out for 5 min at 30° C.
as §1, with “assay. Lck-GST-fused protein was purified from Sf9 cells. Myelin basic protein was phosphorylated by Lck-GST-fused protein in the presence or absence of inhibitory peptides in the kinase buffer (5 mM MnCl2, 5 mM MgCl2, 25 mM Tris [pH 7.4]), 50 μM ATP, and 5 μCi [γ-^32P]ATP for 5 min at 30° C.” for “assay.”

Series [3] has as its target T3, Human ZAP-70-glutathione S-transferase (GST)-fused protein (human, UniProt P43403 1-619).
T3 construct: the SH2 domains are spoken of as present; also called ZAP-70-GST fused protein; GST-ZAP-70; not shown: glutathione S-transferase (GST) fusion partner
T3 sequence (looked up): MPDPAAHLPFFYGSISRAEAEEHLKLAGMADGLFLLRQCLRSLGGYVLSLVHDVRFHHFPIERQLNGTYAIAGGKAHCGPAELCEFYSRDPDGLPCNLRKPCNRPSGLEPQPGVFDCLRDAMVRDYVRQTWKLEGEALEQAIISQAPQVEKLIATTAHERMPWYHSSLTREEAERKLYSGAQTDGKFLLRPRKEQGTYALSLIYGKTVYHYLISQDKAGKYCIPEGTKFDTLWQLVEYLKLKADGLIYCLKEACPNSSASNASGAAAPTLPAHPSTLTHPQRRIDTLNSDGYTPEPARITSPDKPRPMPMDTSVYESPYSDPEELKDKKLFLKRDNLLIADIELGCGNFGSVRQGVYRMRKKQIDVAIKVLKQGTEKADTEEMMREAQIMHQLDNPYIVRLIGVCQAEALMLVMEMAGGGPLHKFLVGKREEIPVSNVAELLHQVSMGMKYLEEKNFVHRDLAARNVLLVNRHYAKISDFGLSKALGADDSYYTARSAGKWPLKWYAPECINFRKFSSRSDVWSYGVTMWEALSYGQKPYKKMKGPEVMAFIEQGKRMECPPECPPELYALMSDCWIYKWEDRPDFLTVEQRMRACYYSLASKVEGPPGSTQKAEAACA
Kind of series: comparison of ZAP-70 inhibition by peptide 4 and peptide 6, tubulin as substrate.

Series [4] deals with T4, peptide 2 (predicted optimal ZAP-70 binding peptide, KLILYLLLL AKKK).
T4 chain: KLILYLLLLAKKK

The target of series [5] is T5, peptide 1 (optimal ZAP-70 substrate, EEEEYFFII AKKK).
T5 chain: EEEEYFFIIAKKK

Series [6] concerns the target T6, peptide 3 (ELILYLLLL AKKK).
T6 chain: ELILYLLLLAKKK

Substrate in series [7]: CC[C@H](C)[C@H](NC(=O)[C@H](CC(C)C)NC(=O)[C@@H](N)CCCCN)C(=O)N[C@@H](CC(C)C)C(=O)N[C@@H](Cc1ccc(O)cc1)C(=O)N[C@@H](CC(C)C)C(=O)N[C@@H](CC(C)C)C(=O)N[C@@H](CC(C)C)C(=O)N[C@@H](CC(C)C)C(=O)N[C@@H](C)C(=O)N[C@@H](CCCCN)C(=O)N[C@@H](CCCCN)C(=O)N[C@@H](CCCCN)C(=O)O
The experiment in a line: Kinetic parameters for the phosphorylation of synthetic peptides by ZAP-70 (phosphocellulose assay). The series is classed as biochemical, Human. As to conditions: other: peptide as substrate, 100 μM ATP, 5 min at 30° C., average of three independent experiments. The protocol:
(§2) Human ZAP-70-glutathione S-transferase (GST)-fused protein was expressed in Sf9 cells using baculovirus. In this study, we used GST-ZAP-70 expressed in Sf9 cells without coexpression of Lck for library screening and kinase assays because the substrate selectivity of partially activated ZAP-70 is higher than that of fully activated ZAP-70 in peptide library screening for their specific substrate motifs (unpublished results). ZAP-70-GST fused protein (600 μg) was purified by using glutathione-agarose beads. […]
as §1, with “Calif.). […]” for “Calif.).”

Substrate in series [8]: CC[C@H](C)[C@H](NC(=O)[C@H](CC(C)C)NC(=O)[C@@H](N)CCC(=O)O)C(=O)N[C@@H](CC(C)C)C(=O)N[C@@H](Cc1ccc(O)cc1)C(=O)N[C@@H](CC(C)C)C(=O)N[C@@H](CC(C)C)C(=O)N[C@@H](CC(C)C)C(=O)N[C@@H](CC(C)C)C(=O)N[C@@H](C)C(=O)N[C@@H](CCCCN)C(=O)N[C@@H](CCCCN)C(=O)N[C@@H](CCCCN)C(=O)O
The description is as above. The series is classed as biochemical, Human. The conditions noted are these: other: peptide as substrate, 100 μM ATP, 5 min at 30° C., average of three independent experiments. The protocol: as §2
as §1, with “Calif.). […]” for “Calif.).”

T2 sequence (P06239 whole entry, the tested form may be a part): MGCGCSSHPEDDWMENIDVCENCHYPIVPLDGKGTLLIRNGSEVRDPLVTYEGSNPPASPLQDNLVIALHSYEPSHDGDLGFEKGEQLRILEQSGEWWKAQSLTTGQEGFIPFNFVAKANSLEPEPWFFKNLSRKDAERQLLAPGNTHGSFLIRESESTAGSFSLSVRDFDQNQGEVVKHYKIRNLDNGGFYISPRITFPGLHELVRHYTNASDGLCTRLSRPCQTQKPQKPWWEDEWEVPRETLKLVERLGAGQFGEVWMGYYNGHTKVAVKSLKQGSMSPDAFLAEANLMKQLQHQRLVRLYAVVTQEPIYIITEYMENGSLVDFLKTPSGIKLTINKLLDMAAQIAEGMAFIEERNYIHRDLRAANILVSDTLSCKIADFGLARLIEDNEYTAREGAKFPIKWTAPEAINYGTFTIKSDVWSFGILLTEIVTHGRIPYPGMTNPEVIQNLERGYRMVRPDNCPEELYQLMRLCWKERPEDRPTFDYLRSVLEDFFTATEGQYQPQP

Turning to “KLILYLLLL [peptide 6, identical to peptide 4 except for Tyr replacing the Phe]”, the “ZAP-70 inhibitory effect (in words)” value with ZAP-70 [1] was “little effect on peptide binding to ZAP-70”.
On to “peptide 5: peptide 4 with deletion of the Lys at position −4 (LILYLLLL)”, for which the “inhibitory ability on ZAP-70 (in words)” value in the series with ZAP-70 [2] was “dramatically reduced the inhibitory ability”. In the series with ZAP-70 [1], the “ZAP-70 inhibitory effect (in words)” value is “less effective as an inhibitor of both kinases”. For the same molecule, the “Lck inhibitory effect (in words)” value in the series with Lck-GST-fused protein is reported as “less effective as an inhibitor of both kinases”.

B1: peptide 6 (KLILYLLLL) (peptide)
peptide: KLILYLLLL
notes: Identical to peptide 4 except for Tyr replacing the Phe
B1: in series [3], the binding result is given as “binds”.

B2: ZAP-70-GST-fused protein (Homo sapiens) (protein)
chain: MPDPAAHLPFFYGSISRAEAEEHLKLAGMADGLFLLRQCLRSLGGYVLSLVHDVRFHHFPIERQLNGTYAIAGGKAHCGPAELCEFYSRDPDGLPCNLRKPCNRPSGLEPQPGVFDCLRDAMVRDYVRQTWKLEGEALEQAIISQAPQVEKLIATTAHERMPWYHSSLTREEAERKLYSGAQTDGKFLLRPRKEQGTYALSLIYGKTVYHYLISQDKAGKYCIPEGTKFDTLWQLVEYLKLKADGLIYCLKEACPNSSASNASGAAAPTLPAHPSTLTHPQRRIDTLNSDGYTPEPARITSPDKPRPMPMDTSVYESPYSDPEELKDKKLFLKRDNLLIADIELGCGNFGSVRQGVYRMRKKQIDVAIKVLKQGTEKADTEEMMREAQIMHQLDNPYIVRLIGVCQAEALMLVMEMAGGGPLHKFLVGKREEIPVSNVAELLHQVSMGMKYLEEKNFVHRDLAARNVLLVNRHYAKISDFGLSKALGADDSYYTARSAGKWPLKWYAPECINFRKFSSRSDVWSYGVTMWEALSYGQKPYKKMKGPEVMAFIEQGKRMECPPECPPELYALMSDCWIYKWEDRPDFLTVEQRMRACYYSLASKVEGPPGSTQKAEAACA
notes: made in house; host or cells: Sf9 cells (baculovirus)
With B2, the Km (µM) for phosphorylation of the synthetic peptide by ZAP-70 in series [4] was 26 µM; in series [5], 40 µM; in [6], 188 µM. Further, the “Km relative to peptide 2” value in series [6] was 7-fold higher Km than peptide 2. Further, the Km – broadly, the substrate concentration at which the rate is half of its maximum – in series [7] came out at 26 µM; in [8], 188 µM.
